Data on three molecules can be found in patent US20240182575A1 (Ablynx, published 2024).

In assay [1] the target is T1, HuCTLA4-HuIgG1 (fusion protein of the extracellular part of human CD152 and human Fc gamma 1, CTLA4-Ig) (human, UniProt P16410 36-161).
T1 construct: extracellular domain; also called CTLA4-hFc; CTLA4-Fc; not shown: human Fc gamma 1
The assay is described as follows: competition ELISA, CTLA4-hFc in solution; blocked ligand coated B7-1-muFc. How it is done:
In order to determine B7-1 competition efficiency of CTLA4 binding Nanobodies, the purified clones were tested in an ELISA competition assay setup.

In assay [2] the target is T1, HuCTLA4-HuIgG1 (fusion protein of the …). The assay is described as follows: competition ELISA, CTLA4-hFc in solution; blocked ligand coated B7-2-muFc.
For assay [3] the target is unchanged. The assay is described as follows: competition ELISA, CTLA4-hFc in solution; blocked ligand coated B7-1-muFc. The source holds these as a separate data set.
Assay [4] has as its target T2, HuCD28-HuIgG1 (fusion protein of the extracellular part of human CD28 and human Fc gamma 1, R&D Systems Cat … (human, UniProt P10747 19-152; P01857 100-330 = IgG part).
T2 construct: extracellular domain;domain: Fc; bought; also called CD28-Ig; hCD28-Fc
Put plainly: competition ELISA, periplasmic extract, CD28-hFc in solution; blocked ligand coated B7-1-muFc. An excerpt:
This mixture was applied on the coated B7-1 and CD28 was allowed to bind to the immobilized B7-1.

Assay [5] concerns the target T3, human CD28 on Jurkat cells (human, UniProt P10747 19-220).
T3 construct: whole, on cells; also called native form of the CD28 antigen; cell expressed CD28
The assay is described as follows: FACS, Jurkat cells. How it is done: Binding of putative CD28 reactive Nanobodies clones was detected using unlabeled anti-c-myc tag mouse monoclonal antibody 9E10, followed by a phycoerythrin conjugated F(ab′)2 derived from goat-anti-mouse IgG (human and bovine crossabsorbed), and read on a BD FACSarray instrument. Dead cells were excluded from the analysis by gating out TOPRO3 vital dye positive scoring cells. Binding of the Nanobodies to cells was evaluated in BD FACSarray control software as PE channel histograms.

Assay [6] addresses T4, HuCD80-MuIgG2a (extracellular (173aa) domain of human CD80 fused to murine IgG2a Fc+hinge (232 aa), Ancell … (human; mouse, UniProt P33681 35-242).
T4 construct: extracellular domain; bought, produced in CHO cells; also called B7-1-muFc; not shown: murine IgG2a Fc+hinge (232 aa)
T4 sequence (looked up): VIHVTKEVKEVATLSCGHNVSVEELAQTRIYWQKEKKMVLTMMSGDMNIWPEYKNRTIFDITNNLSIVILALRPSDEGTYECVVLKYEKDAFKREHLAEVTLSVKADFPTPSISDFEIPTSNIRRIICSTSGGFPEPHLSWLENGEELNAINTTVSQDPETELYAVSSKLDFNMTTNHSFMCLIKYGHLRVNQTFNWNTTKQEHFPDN
The assay is described as follows: competition ELISA, coated CD80-Ig; blocked ligand CD28-Ig. How it is done:
Inhibition was determined based on OD values of controls having received no Nanobody (high control) or no CD28- or CTLA4-HuIgG1 fusion protein (low control).

Assay [7] addresses T5, HuCD86-MuIgG2a (fusion protein of the extracellular part of human CD86 and mouse Fc gamma 2a, Ancell Cat … (human; mouse, UniProt P42081 24-247; P01863 98-330 = IgG part).
T5 construct: extracellular domain;domain: Fc; bought; also called B7-2
The assay is described as follows: competition ELISA, coated CD86-Ig; blocked ligand CD28-Ig.

The target in assay [8] is T6, HuCD86-HuIgG1 (fusion protein of the extracellular part of human CD86 and human Fc gamma 1, R&D Systems Cat … (human, UniProt P42081 24-247)).
T6 construct: extracellular domain; bought; also called CD86-IgG1; CD86-Ig; not shown: human Fc gamma 1
T6 sequence (looked up): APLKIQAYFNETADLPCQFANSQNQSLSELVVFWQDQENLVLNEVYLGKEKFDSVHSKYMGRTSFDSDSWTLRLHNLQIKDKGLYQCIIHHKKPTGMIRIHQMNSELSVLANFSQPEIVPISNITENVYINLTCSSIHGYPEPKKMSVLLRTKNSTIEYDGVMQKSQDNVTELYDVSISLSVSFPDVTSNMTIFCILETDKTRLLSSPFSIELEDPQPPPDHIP
The assay is described as follows: SPR, Biacore 3000, antigen amine-coupled. How it is done:
(§1) Affinity constants (Kd) of individual purified Nanobody clones were determined by surface plasmon resonance on a Biacore 3000 instrument. […] Remaining reactive groups were inactivated using ethanolamine. Nanobody binding was assessed at 1 and 0.1 microM. Each sample was injected for 4 min at a flow rate of 45 μl/min to allow for binding to chip-bound antigen. Next, binding buffer without Nanobody was sent over the chip at the same flow rate to allow for dissociation of bound Nanobody. After 2 min, remaining bound analyte was removed by injecting regeneration solution (50 mM NaOH or Glycine/HCl pH 1.5). Binding curves obtained at different concentrations of Nanobody were used to calculate Kd values.

The target in assay [9] is T7, HuCD80-HuIgG1 (fusion protein of the extracellular part of human CD80 and human Fc gamma 1, R&D Systems Cat … (human, UniProt P33681 35-242)).
T7 construct: extracellular domain; bought, produced in NS0 cells; also called CD80-IgG1; CD80-Ig; not shown: human Fc gamma 1
T7 sequence (looked up): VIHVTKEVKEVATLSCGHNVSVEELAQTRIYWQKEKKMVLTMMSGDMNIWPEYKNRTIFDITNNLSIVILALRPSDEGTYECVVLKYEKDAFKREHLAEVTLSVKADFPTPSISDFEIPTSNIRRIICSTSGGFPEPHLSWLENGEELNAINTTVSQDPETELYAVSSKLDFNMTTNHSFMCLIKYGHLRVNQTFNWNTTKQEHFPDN
The assay is described as follows: SPR, Biacore 3000, antigen amine-coupled. How it is done:
as §1

B1: 65H7 (VHH)
VHH: EVQLVESGGGLVQPGGSLRLSCAASGSILSIAVAGWYRRQPGKERELVATISPGNNTHYVDSVKGRFTISRDNAKNTVYLQMTTLKPDDTAAYYCNAKGSILLNAFDYWGKGTQVTVSS
notes: Nanobody against CTLA4; also called 65H7 (4-1)
For the molecule B1, the “IC50 (read off the curve)” value was roughly 100 nM in assay [1], roughly 200 nM in assay [2] and roughly 100 nM in assay [3].

B2: 65G2 (VHH)
VHH: EVQLVESGGGLVQPGGSLRLSCAASGFTLDAYAIHWFRQAPGKEREGVSCISSSDGSTYYANSVKGRFTISRDNAKNAVYLQMNSLKPEDTAVYYCATAKRCWGLSYEYDYWGQGTQVTVSS
notes: Nanobody against CD28
Regarding B2, the binding result in [4] and in [5] was “binds” each time.

B3: CD8086PMP1E11 (VHH)
VHH: EVQLVESGGGLVQPGGSLRLSCAASGFTLDYSAIGWFRQAPGKEREGVSYISSSDGSTYYADSVEGRFTISRDNAKNTLYLQMNSLKPEDTAVYYCAAGGPFTVSTMPWLANYWGQGTQVTVSS
notes: not shown: C-terminal c-myc tag and His6 tag
As for B3, in assay [6], the “IC50 (read off the curve)” value was roughly 400 nM. Moreover, the “IC50 (read off the curve)” value in assay [7] is roughly 10 nM. Besides, in assay [8], the Kd worked out at 553 nM, the koff amounted to 0.002 s⁻¹ and the kon was found to be 3600 M⁻¹ s⁻¹. In [9], this molecule came in with a Kd of 23 nM, a koff of 0.0004 s⁻¹ and a kon of 18000 M⁻¹ s⁻¹.
